Reference: patent US20160137730A1 (Novartis, published 2016)
Residue numbers refer to the chain shown, from its start.

B1: NEG0012-MCC-DM1 (antibody, human IgG1, kappa, V domains shown)
VH: EVQLVQSGAEVKKPGESLKISCKVSGYTFTDHTIHWMRQMPGKGLEWMGYIYPRSGSINYNEKFKGQVTISADKSSSTAYLQWSSLKASDTAMYYCARRNLFLPMEYWGQGTLVTVSS
VL: DIVMTQTPLSLPVTPGEPASISCRSSQSLLSSGDQKNYLTWYLQKPGQSPQLLIYWASTRESGVPDRFSGSGSGTDFTLKISRVEAEDVGVYYCQNDYRYPLTFGQGTKLEIKR
modifications: DM1 (maytansinoid) attached through the MCC linker to primary amines of the antibody; sites not given
notes: Antibody drug conjugate in Ab-MCC-DM1 format; also called NEG0012 ADC
B2: NEG0012 (antibody, human IgG1, kappa, V domains shown)
VH: B1 VH
VL: B1 VL
notes: Humanized anti-P-cadherin antibody derived from a murine hybridoma; also called NEG0012 Naked
B3: NEG0013-MCC-DM1 (antibody, human IgG1, kappa, V domains shown)
VH: B1 VH
VL: B1 VL with D34N, R99S
modifications: DM1 (maytansinoid) attached through the MCC linker to primary amines of the antibody; sites not given
notes: Antibody drug conjugate in Ab-MCC-DM1 format; also called NEG0013 ADC
B4: NEG0013 (antibody, human IgG1, kappa, V domains shown)
VH: B1 VH
VL: B1 VL with D34N, R99S
notes: Humanized anti-P-cadherin antibody derived from a murine hybridoma; also called NEG0013 Naked
B5: NOV169N31Q-MCC-DM1 (antibody, human IgG1, kappa, V domains shown)
VH: QVQLQQSGPGLVKPSQTLSLTCAISGDSVSSQSAAWNWIRQSPSRGLEWLGRIYYRSKWYNDYALSVKSRITINPDTSKNQFSLQLNSVTPEDTAVYYCARGEGYGREGFAIWGQGTLVTVSS
VL: DIQMTQSPSSLSASVGDRVTITCRASQTISNTLAWYQQKPGKAPKLLIYAASNLQSGVPSRFSGSGSGTDFTLTISSLQPEDFATYYCQQYLSWFTFGQGTKVEIKR
modifications: DM1 (maytansinoid) attached through the MCC linker to primary amines of the antibody; sites not given
notes: MAR 3.7 (one-step process), 3.15 (in situ process), target DAR 3.8; also called NOV169N31Q ADC
B6: NOV169N31Q (antibody, human IgG1, kappa, V domains shown)
VH: B5 VH
VL: B5 VL
notes: N31Q in HCDR1 removes a deamidation site of parental NOV169; also called anti-P-cadherin antibody NOV169N31Q; NOV169N31Q Naked
B7: NEG0064 (antibody, human IgG1, kappa, V domains shown)
VH: QIQLVQSGAEVKKPGSSVKVSCKVSGYTFTDHTLHWMRQAPGQGLEWMGYIYPRSGSTKYNENFRGRVTITADTSSSTAYMELSSLRSEDTAVYYCVRRLLFLPLDYWGQGTLVTVSS
VL: EIVMTQSPATLSLSPGERATLSCRSSQSLLSSGNQKSYLTWYQQKPGQAPRLLIYWASTRESGIPARFSGSGSGTDFTLTISSLQPEDFAVYYCQNDYSYPFTFGQGTKLEIKR
notes: Humanized anti-P-cadherin antibody derived from a murine hybridoma; also called NEG0064 Naked
B8: NEG0064-MCC-DM1 (antibody, human IgG1, kappa, V domains shown)
VH: B7 VH
VL: B7 VL
modifications: DM1 (maytansinoid) attached through the MCC linker to primary amines of the antibody; sites not given
notes: Antibody drug conjugate in Ab-MCC-DM1 format; also called NEG0064 ADC
B9: NEG0016-MCC-DM1 (antibody, human IgG1, kappa, V domains shown)
VH: B7 VH with V97A
VL: B7 VL
modifications: DM1 (maytansinoid) attached through the MCC linker to primary amines of the antibody; sites not given
notes: Antibody drug conjugate in Ab-MCC-DM1 format; also called NEG0016 ADC
B10: NEG0067-MCC-DM1 (antibody, human IgG1, kappa, V domains shown)
VH: B7 VH with R65K
VL: B7 VL
modifications: DM1 (maytansinoid) attached through the MCC linker to primary amines of the antibody; sites not given
notes: Antibody drug conjugate in Ab-MCC-DM1 format; also called NEG0067 ADC
B11: NEG0016 (antibody, human IgG1, kappa, V domains shown)
VH: B7 VH with V97A
VL: B7 VL
notes: Humanized anti-P-cadherin antibody derived from a murine hybridoma; also called NEG0016 Naked
B12: NEG0067 (antibody, human IgG1, kappa, V domains shown)
VH: B7 VH with R65K
VL: B7 VL
notes: Humanized anti-P-cadherin antibody derived from a murine hybridoma; also called NEG0067 Naked

Assays:
[1] = molecular target: T1, Human P-cadherin (CDH3) D1-5 (human, UniProt P22223 108-652); assay: SPR Biacore, ADC captured via Protein A, ECD-6xHis analyte, 25C, 1:1 fit
T1 construct: Human CDH3 residues 108-652 with a C-terminal 6xHis tag, made in Tn5 insect cells with baculovirus (NM_001793.4, NP_001784); It may include a secretion signal and vector residues, as the printed cyno constructs do; no cleavage site is stated; also called human pCAD-6xHis; human P-cadherin ECD
Source text: (§1) Briefly, HBS-P⁺ (0.01 M HEPES, pH 7.4, 0.15 M NaCl, 0.05% Surfactant P20) supplemented with 2% Odyssey® blocking buffer (Li-Cor Biosciences, Lincoln, Nebr.) was used as the running buffer for all the experiments on the Biacore® T100 instrument. HBS-P (0.01 M HEPES, pH 7.4, 0.15 M NaCl, 0.005% Surfactant P20) supplemented with 2% Odyssey® blocking buffer was used as the running buffer for all the experiments on the Biacore® 2000 instrument. The immobilization level and analyte interactions were measured by response unit (RU).
(§2) For kinetic measurements, experiments were performed in which the antibodies were captured to the sensor chip surface via the immobilized Protein A and the ability of the P-cadherin proteins to bind in free solution was determined. Briefly, 28 μg/ml of Protein A at pH 4.5 was immobilized on a CM5 sensor chip through amine coupling at flow rate of 10 μl/minute on two flow cells to reach 2300-3300 RUs. 0.01-0.25 μg/ml of test antibodies was then injected at 5 μl/min for 3 minute. […] Subsequently, 6.25-100 nM of P-cadherin ECD was diluted in a 2-fold series and injected at a flow rate of 40 μl/min for 2-4 min over both reference and test flow cells. Table 11 of tested ECDs is listed below. Dissociation of the binding was followed for 5 min. After each injection cycle, the chip surface was regenerated with PBS/6 M Guanidine HCl, pH 7.4 at 100 μl/min for 45 seconds.

[2] = molecular target: T1, Human P-cadherin (CDH3) D1-5; assay: SPR Biacore, Ab captured via Protein A, ECD-6xHis analyte, 25C, 1:1 fit
Source text: as §1, §2

[3] = molecular target: T2, Rat P-cadherin (CDH3) D1-5 (rat, UniProt P10287 100-647 (mouse entry)); assay: as above
T2 construct: Rat CDH3 residues 100-647 with a C-terminal 6xHis tag (NM_053938.1, NP_446390); it may include leader and vector residues; also called rat pCAD-6xHis
T2 chain: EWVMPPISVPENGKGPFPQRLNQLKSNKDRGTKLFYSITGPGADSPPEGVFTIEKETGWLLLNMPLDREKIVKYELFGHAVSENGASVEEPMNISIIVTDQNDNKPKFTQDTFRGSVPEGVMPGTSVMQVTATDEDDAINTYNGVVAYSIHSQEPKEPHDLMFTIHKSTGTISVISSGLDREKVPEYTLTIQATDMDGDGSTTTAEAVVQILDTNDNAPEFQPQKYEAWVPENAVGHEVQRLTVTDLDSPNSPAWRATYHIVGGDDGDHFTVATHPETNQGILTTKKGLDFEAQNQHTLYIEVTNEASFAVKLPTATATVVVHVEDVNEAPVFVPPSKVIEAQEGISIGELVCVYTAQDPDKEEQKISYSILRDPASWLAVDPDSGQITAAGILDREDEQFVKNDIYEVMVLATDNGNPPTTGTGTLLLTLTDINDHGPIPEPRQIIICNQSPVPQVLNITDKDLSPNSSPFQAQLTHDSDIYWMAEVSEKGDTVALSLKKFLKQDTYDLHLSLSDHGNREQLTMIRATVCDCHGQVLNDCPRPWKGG
Source text: as §1, §2

[4] = molecular target: T3, Cynomolgus Monkey P-cadherin var. 1 (CDH3) D1-5 (cynomolgus monkey); assay: SPR Biacore, ADC captured via Protein A, ECD-6xHis analyte, 25C, 1:1 fit
T3 construct: Cynomolgus CDH3 variant 1 residues 108-654 with a C-terminal 6xHis tag; The printed entry starts with a leader and vector residues; also called Cyno_1 P-cad; cyno1 pCAD-6xHis
Source text: as §1, §2

[5] = molecular target: T4, Cynomolgus Monkey P-cadherin var. 2 (CDH3) D1-5 (cynomolgus monkey); assay: as above
T4 construct: Cynomolgus CDH3 variant 2 residues 108-654 with a C-terminal 6xHis tag; The printed entry starts with a leader and vector residues; also called Cyno_2 P-cad; cyno2 pCAD-6xHis
Source text: as §1, §2

Human P-cadherin = Human P-cadherin (human, UniProt P22223 108-829); assay: cell-based or functional assay
[6] = molecular target: T2, Rat P-cadherin (CDH3) D1-5; assay: SPR Biacore, Ab captured via Protein A, ECD-6xHis analyte
[7] = molecular target: T2, Rat P-cadherin (CDH3) D1-5; assay: SPR Biacore, ADC captured via Protein A, ECD-6xHis analyte, 25C, 1:1 fit
Source text: as §1, §2

T1 sequence (P22223 108-652 limits assumed): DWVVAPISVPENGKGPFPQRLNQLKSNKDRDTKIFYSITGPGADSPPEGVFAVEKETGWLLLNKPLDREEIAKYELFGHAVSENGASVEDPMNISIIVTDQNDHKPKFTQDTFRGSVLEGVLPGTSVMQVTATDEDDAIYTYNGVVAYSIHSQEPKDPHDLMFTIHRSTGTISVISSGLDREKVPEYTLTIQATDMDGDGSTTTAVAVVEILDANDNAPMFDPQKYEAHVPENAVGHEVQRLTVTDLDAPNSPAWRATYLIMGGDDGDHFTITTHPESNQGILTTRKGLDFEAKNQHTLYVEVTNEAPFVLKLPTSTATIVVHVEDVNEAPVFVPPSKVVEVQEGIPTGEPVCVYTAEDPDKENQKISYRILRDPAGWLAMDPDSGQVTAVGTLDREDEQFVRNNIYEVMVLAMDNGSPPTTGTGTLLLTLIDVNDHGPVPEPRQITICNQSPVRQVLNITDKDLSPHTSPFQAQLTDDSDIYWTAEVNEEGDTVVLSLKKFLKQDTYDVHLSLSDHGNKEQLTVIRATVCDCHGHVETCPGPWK
Human P-cadherin, sequence (P22223 108-829 limits assumed): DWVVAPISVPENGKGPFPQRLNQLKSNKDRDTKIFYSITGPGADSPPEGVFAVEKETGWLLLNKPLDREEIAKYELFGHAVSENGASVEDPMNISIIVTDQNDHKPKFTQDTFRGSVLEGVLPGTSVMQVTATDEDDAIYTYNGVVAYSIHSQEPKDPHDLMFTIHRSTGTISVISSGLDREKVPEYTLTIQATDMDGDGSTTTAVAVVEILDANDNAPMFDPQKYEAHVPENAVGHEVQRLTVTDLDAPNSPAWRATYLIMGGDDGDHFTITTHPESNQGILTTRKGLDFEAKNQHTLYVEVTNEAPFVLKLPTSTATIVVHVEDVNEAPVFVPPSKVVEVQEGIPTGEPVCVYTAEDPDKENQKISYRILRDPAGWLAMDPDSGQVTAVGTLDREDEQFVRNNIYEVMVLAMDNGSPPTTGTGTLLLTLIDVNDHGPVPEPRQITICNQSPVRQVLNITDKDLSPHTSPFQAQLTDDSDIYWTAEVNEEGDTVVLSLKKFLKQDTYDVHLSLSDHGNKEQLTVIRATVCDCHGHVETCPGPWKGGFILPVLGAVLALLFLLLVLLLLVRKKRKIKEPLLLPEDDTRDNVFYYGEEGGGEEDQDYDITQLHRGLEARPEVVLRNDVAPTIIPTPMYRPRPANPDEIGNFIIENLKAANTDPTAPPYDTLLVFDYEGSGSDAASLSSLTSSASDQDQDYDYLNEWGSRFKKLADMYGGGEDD
T4 sequence (chain, as listed by the source limits assumed): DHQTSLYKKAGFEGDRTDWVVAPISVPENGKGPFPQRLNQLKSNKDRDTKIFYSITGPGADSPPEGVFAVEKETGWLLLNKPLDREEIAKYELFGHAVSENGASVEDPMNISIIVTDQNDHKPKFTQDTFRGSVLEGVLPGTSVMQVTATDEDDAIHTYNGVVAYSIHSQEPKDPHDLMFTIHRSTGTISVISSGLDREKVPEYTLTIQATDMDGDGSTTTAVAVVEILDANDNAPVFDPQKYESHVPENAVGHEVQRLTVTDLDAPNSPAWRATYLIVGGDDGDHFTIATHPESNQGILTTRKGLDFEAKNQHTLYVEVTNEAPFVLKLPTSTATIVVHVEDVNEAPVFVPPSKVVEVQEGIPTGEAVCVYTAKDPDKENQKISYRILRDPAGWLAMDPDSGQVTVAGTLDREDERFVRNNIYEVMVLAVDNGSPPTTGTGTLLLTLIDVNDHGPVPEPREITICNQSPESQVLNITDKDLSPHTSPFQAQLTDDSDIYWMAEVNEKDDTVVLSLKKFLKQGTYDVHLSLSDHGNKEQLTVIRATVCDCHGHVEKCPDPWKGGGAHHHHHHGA
T3 sequence (chain, as listed by the source limits assumed): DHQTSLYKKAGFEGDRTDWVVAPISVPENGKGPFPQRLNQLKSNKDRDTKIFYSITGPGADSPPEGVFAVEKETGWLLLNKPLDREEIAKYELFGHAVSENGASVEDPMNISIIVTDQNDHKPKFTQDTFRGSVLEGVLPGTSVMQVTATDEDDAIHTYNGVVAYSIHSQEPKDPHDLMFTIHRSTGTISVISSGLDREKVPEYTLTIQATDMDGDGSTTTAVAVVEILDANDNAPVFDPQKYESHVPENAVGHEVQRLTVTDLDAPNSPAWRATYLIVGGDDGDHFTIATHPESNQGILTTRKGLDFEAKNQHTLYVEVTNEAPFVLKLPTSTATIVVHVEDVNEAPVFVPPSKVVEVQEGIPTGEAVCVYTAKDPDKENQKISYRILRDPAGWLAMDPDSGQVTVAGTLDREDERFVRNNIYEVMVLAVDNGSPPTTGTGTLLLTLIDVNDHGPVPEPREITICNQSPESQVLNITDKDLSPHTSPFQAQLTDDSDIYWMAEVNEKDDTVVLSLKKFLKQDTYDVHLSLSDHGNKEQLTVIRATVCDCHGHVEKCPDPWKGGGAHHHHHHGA

Binder	Kd [1]	Kd [2]	Kd [3]	further results
B1	31.3 nM			
B2		44.8 nM		
B3	36 nM			
B4		37.3 nM	37 nM	
B5	27 nM			Kd [4]: 27.5 nM; Kd [5]: 47.1 nM; IC50 (nM), CellTiter-Glo proliferation/survival, 5 days, A431 cells (Human P-cadherin): 21.8 nM; IC50 (nM), CellTiter-Glo proliferation/survival, 5 days, BICR6 cells (Human P-cadherin): 9.62 nM; IC50 (nM), CellTiter-Glo proliferation/survival, 5 days, HCC38 cells (Human P-cadherin): 5.29 nM; IC50 (nM), CellTiter-Glo proliferation/survival, 5 days, HCC70 cells (Human P-cadherin): 3.23 nM; IC50 (nM), CellTiter-Glo proliferation/survival, 5 days, HCC1806 cells (Human P-cadherin): 11.4 nM; IC50 (nM), CellTiter-Glo proliferation/survival, 5 days, HCC1954 cells (Human P-cadherin): 2.28 nM; IC50 (nM), CellTiter-Glo proliferation/survival, 5 days, scaBER cells (Human P-cadherin): 4.06 nM
B6		33.3 nM		binding result [6]: no binding (tested: 6.25-100 nM P-cadherin ECD injected)
B7		3.66 nM	8.99 nM	
B8	4.4 nM			Kd [7]: 13.3 nM
B9	54 nM			
B10	6 nM			
B11		60 nM	60.1 nM	
B12		3.21 nM	10.3 nM	
